The values that follow are results of earlier work, collected in US20220257789A1, “ANTI-TISSUE FACTOR ANTIBODY-DRUG CONJUGATES AND RELATED METHODS” (Iconic Therapeutics, Inc., priority 2019, published 2022).

Read-outs that look alike come from different tables or passages of the source.

For one data set, the target named is T1, mTF (Mus musculus, UniProt P20352).
T1 sequence (P20352 29-294): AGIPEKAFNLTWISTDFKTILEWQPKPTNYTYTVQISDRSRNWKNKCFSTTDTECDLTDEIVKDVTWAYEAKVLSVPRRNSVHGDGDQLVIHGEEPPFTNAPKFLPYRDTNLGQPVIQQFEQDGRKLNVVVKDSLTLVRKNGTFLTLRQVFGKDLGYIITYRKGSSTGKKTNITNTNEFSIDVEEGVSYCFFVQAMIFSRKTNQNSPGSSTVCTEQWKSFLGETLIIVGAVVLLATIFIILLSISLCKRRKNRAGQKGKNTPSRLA
Conditions: binds when a KD value can be measured on a ForteBio Octet. Background: BLI is a label-free optical method that tracks binding on a fibre tip over time.

With “tisotumab vedotin: anti-TF fully human monoclonal antibody conjugated to MMAE with a protease-cleavable linker (Genmab)”, the dose limiting toxicities result (6 mg/kg) was “grade 4 neutropenia and severe skin irritation and skin ulceration”. The toxicity entry is “dose limiting toxicity (e.g., neutropenia)” (dose of 2.2 mg/kg (de Bono et al. 2019)); “Neutropenia and skin toxicity” (dose of 3 mg/kg). In addition, the “ALT and AST” value (in vivo) is “transient ALT and AST elevations”.
Consider “humanized 5G9: humanized 5G9 anti-TF antibody described in Ngo et al., 2007; VH SEQ ID NO: 830, VL SEQ ID NO: 831”, for which the “binding to mouse TF” value with mTF is recorded as “do not bind to mouse TF”.
